Earlier results in publication PMC3310390.
Like-named read-outs stand apart in the source and are kept apart here. One block for each substance: values may come before it.

Assays:
[1] = biological target: Sir3 (Saccharomyces cerevisiae) (UniProt P06701)
[2] = biological target: Sir3 (Saccharomyces cerevisiae) (UniProt P06701); remark: listed apart in the source
[3] = biological target: Sir3 (Saccharomyces cerevisiae) (UniProt P06701); remark: listed apart in the source

Kd [1]: 60 nM
Substance: Sir2 (from UniProt P06700)

Kd [2]: 0.03 nM
Substance: Sir2/Sir4 complex (from UniProt P06700)

Kd [3]: 2 nM
Substance: Sir3 (from UniProt P06701)
